Assay results taken from ChEMBL document CHEMBL1132371, “5-deazafolate analogues with a rotationally restricted glutamate or ornithine side chain: synthesis and binding interaction with folylpolyglutamate synthetase” (J Med Chem, 1999).

B1: Folylpolyglutamate synthase, mitochondrial (Homo sapiens), Q05932 (protein)
chain: MSRARSHLRAALFLAAASARGITTQVAARRGLSAWPVPQEPSMEYQDAVRMLNTLQTNAGYLEQVKRQRGDPQTQLEAMELYLARSGLQVEDLDRLNIIHVTGTKGKGSTCAFTECILRSYGLKTGFFSSPHLVQVRERIRINGQPISPELFTKYFWRLYHRLEETKDGSCVSMPPYFRFLTLMAFHVFLQEKVDLAVVEVGIGGAYDCTNIIRKPVVCGVSSLGIDHTSLLGDTVEKIAWQKGGIFKQGVPAFTVLQPEGPLAVLRDRAQQISCPLYLCPMLEALEEGGPPLTLGLEGEHQRSNAALALQLAHCWLQRQDRHGAGEPKASRPGLLWQLPLAPVFQPTSHMRLGLRNTEWPGRTQVLRRGPLTWYLDGAHTASSAQACVRWFRQALQGRERPSGGPEVRVLLFNATGDRDPAALLKLLQPCQFDYAVFCPNLTEVSSTGNADQQNFTVTLDQVLLRCLEHQQHWNHLDEEQASPDLWSAPSPEPGGSASLLLAPHPPHTCSASSLVFSCISHALQWISQGRDPIFQPPSPPKGLLTHPVAHSGASILREAAAIHVLVTGSLHLVGGVLKLLEPALSQ

How the values were obtained:
[1] = molecular target: T1, Folylpolyglutamate synthase, mitochondrial (Homo sapiens, UniProt Q05932); assay: Binding affinity as Competitive substrate in the presence of […] aminopterin towards recombinant Human Folyl-polyglutamate synthase (FPGS)
T1 sequence (Q05932 whole entry): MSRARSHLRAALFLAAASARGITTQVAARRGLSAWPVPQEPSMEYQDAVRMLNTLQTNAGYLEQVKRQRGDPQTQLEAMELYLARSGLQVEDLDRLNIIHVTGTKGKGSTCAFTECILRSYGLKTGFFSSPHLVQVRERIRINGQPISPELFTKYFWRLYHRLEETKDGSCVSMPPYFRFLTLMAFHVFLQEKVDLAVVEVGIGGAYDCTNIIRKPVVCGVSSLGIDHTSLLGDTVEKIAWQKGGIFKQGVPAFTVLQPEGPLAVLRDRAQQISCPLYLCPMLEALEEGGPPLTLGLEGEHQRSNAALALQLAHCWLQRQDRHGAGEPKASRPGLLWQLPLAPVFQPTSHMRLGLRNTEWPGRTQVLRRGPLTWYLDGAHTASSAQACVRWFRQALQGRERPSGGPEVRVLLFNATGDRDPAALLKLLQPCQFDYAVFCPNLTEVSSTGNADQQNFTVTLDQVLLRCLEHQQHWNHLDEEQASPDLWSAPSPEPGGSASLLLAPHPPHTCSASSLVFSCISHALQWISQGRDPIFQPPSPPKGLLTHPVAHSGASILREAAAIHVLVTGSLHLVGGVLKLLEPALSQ

[2] = compound: Nc1nc(O)c2cc(CNc3ccc4c(c3)CN([C@@H](CCC(=O)O)C(=O)O)C4=O)cnc2n1; assay: (§1) Binding affinity as Competitive substrate in the presence of 10 uM tetrahydrofolate towards recombinant Human Folyl-polyglutamate synthase (FPGS)
[3] = compound: Nc1nc(O)c2c(n1)NCC(CNc1ccc3c(c1)CN([C@@H](CCC(=O)O)C(=O)O)C3=O)C2; assay: as §1
[4] = compound: Nc1nc(O)c2c(n1)NCC(CNc1ccc(C(=O)NC(CCC(=O)O)C(=O)O)cc1)C2; assay: as §1

Molecule | Ki [1] [µM] | Km [2] [µM] | Km [3] [µM] | Km [4] [µM]
NCCC[C@@H](C(=O)O)N1Cc2cc(NCc3cnc4nc(N)[nH]c(=O)c4c3)ccc2C1=O | 110 | – | – | –
NCCC[C@@H](C(=O)O)N1Cc2cc(NCC3CNc4nc(N)nc(O)c4C3)ccc2C1=O (stereo not given in full) | 0.2 | – | – | –
B1 | – | 2.3 | 0.018 | 0.26
